Assay results: the RNAGym collection of RNA variant scans (doi:10.7554/elife.80360)

B1: CPEB3 Ribozyme (parent)
chain: GGGGGCCACAGCAGAAGCGUUCACGUCGCGGCCCCUGUCAGAUUCUGGUGAAUCUGCGAAUUCUGCUGU

Variants of: B1
Test: self-cleavage, relative activity (ratio to wild type); higher = more cleavage; co-transcriptional

In order of falling self-cleavage:
1. GGGGGCCACAGCAGAAGCGUUCACGUCGCGACCCCUGUCAGAUUCUGGUGAAUCUGCGAAUUCUGCUGU  0.931
2. GGGGGCCACAGCAGAAGCGUUCACGUCGCGACCCCUGUCAGAUUCUGUUGAAUCUGCGAAUUCUGCUGU  0.931
3. GGGGGCCACAGCAGAAGCGUUCACGUCGCGACCCCUGUCAGAUUCUGGUGGAUCUGCGAAUUCUGCUGU  0.928
4. GGGGGCCACAGCAGAAGCGUUCACGUCGCGACCCCUGUCAGAUUCUGGUGCAUCUGCGAAUUCUGCUGU  0.897
5. GGGGGCCACAGCAGAAGCGUUCACGUCGCGACCCCUGUCAGAUUCUGGUGAAUCUGCGAAUUUUGCUGU  0.895
6. GGGGGCCACAGCAGAAGCGUUCACGUCGCGACCCCUGUCAGAUUUUGGUGAAUCUGCGAAUUCUGCUGU  0.888
7. GGGGGCCACAGCAGAAGCGUUCACGUCGCGACCCCUGUCAGAUUCUGGUGUAUCUGCGAAUUCUGCUGU  0.879
8. GGGGGCCACAGCAGAAGCGUUCACGUCGCGACCCCUGUCAGAUUCAGGUGAAUCUGCGAAUUCUGCUGU  0.866
9. GGGGGCCACAGCAGAAGCGUUCACGUCGCGACCCCUGUCAGAUUAUGGUGAAUCUGCGAAUUCUGCUGU  0.833
10. GGGGGCCACAGCAGAAGCGUUCACGUCGCGACCCCUGUCAGGUUCUGGUGAAUCUGCGAAUUCUGCUGU  0.794
11. GGGGGCCACAGCAGAAGCGUUCACGUCGCGACCCCUGUCGGAUUCUGGUGAAUCUGCGAAUUCUGCUGU  0.771
12. GGGGGCCACAGCAGAAGCGUUCACGUCGCGACCCCUGCCAGAUUCUGGUGAAUCUGCGAAUUCUGCUGU  0.762
13. GGGGGCCACAGCAGAAGCGUUCACGUCGCGACCCCUGUCAGAUUGUGGUGAAUCUGCGAAUUCUGCUGU  0.761
14. GGGGGCCACAGCAGAAGCGUUCACGUCGCGACCCCUGUCAGAUUCUGGUGAAUCUGCAAAUUCUGCUGU  0.741
15. GGGGGCCACAGCAGAAGCGUUCACGUCGCUGCCCCUGUCAGAUUCUGGUGAAUCUGCGAAUUCUGCAGU  0.735
16. GGGGGCCACAGCAGAAGCGUUCACGUCGCGACCCCUGUCAGAUUCUGGUGAAUCUGCGAAUUCUGGUGU  0.707
17. GGGGGCCACAGCAGAAGCGUUCACGUCGCUGCCCCUGUCAGAUUCUGGUGAAUCUGCGAAUUCUGCUGA  0.666
18. GGGGGCCACAGCAGAAGCGUUCACGUCGCGACCCCUGUCAGUUUCUGGUGAAUCUGCGAAUUCUGCUGU  0.638
19. GGGGGCCACAGCAGAAGCGUUCACGUCGCGAACCCUGUCAGAUUCUGGUGAAUCUGCGAAUUCUGCUGU  0.637
20. GGGGGCCACAGCAGAAGCGUUCACGUCGCGACCCCUGUCAGACUCUGGUGAAUCUGCGAAUUCUGCUGU  0.601
21. GGGGGCCACAGCAGAAGCGUUCACGUCGCGACCCCUGUCAGAAUCUGGUGAAUCUGCGAAUUCUGCUGU  0.59
22. GGGGGCCACAGCAGAAGCGUUCACGUCGCGACUCCUGUCAGAUUCUGGUGAAUCUGCGAAUUCUGCUGU  0.587
23. GGGGGCCACAGCAGAAGCGUUCACGUCGCGAUCCCUGUCAGAUUCUGGUGAAUCUGCGAAUUCUGCUGU  0.534
24. GGGGGCCACAGCAGAAGCGUUCACGUCGCGACCCCUGUCUGAUUCUGGUGAAUCUGCGAAUUCUGCUGU  0.533
25. GGGGGCCACAGCAGAAGCGUUCACGUCGCGACCCCUGUCAGAGUCUGGUGAAUCUGCGAAUUCUGCUGU  0.524
26. GGGGGCCACAGCAGAAGCGUUCACGUCGCGACCCCUGUCAGAUUCUGGUGAAUCUGCGUAUUCUGCUGU  0.441
27. GGGGGCCACAGCAGAAGCGUUCACGUCGCGACCCCUGUCAGAUUCUGGUGAAUCUGCGCAUUCUGCUGU  0.394
28. GGGGGCCACAGCAGAAGCGUUCACGUCGCGACCCCUGUCAGAUUCUGGUGAAUCUGCGAAUUGUGCUGU  0.391
29. GGGGGCCACAGCAGAAGCGUUCACGUCGCGACCCCUGUCAGAUUCUGGUGAAUCUGCGAAGUCUGCUGU  0.381
30. GGGGGCCACAGCAGAAGCGUUCACGUCGCGACCCCUGUCAGAUUCUGGUGAAUCUGCGAAAUCUGCUGU  0.364
31. GGGGGCCACAGCAGAAGCGUUCACGUCGCGACCCCUGUCAGAUUCUGGUGAAUCUGUGAAUUCUGCUGU  0.34
32. GGGGGCCACAGCAGAAGCGUUCACGUCGCGACCCCUGUCAGAUUCUGGUGAAUCUGAGAAUUCUGCUGU  0.307
33. GGGGGCCACAGCAGAAGCGUUCACGUCGCGACACCUGUCAGAUUCUGGUGAAUCUGCGAAUUCUGCUGU  0.266
34. GGGGGCCACAGCAGAAGCGUUCACGUCGCGACCCGUGUCAGAUUCUGGUGAAUCUGCGAAUUCUGCUGU  0.26
35. GGGGGCCACAGCAGAAGCGUUCACGUCGCGACCACUGUCAGAUUCUGGUGAAUCUGCGAAUUCUGCUGU  0.239
36. GGGGGCCACAGCAGAAGCGUUCACGUCGCGACCCCUCUCAGAUUCUGGUGAAUCUGCGAAUUCUGCUGU  0.231
37. GGGGGCCACAGCAGAAGCGUUCACGUCGCUGCCCCUGUCAGAUUCUGGUGAAUCUGCGAAUUCGGCUGU  0.219
38. GGGGGCCACAGCAGAAGCGUUCACGUCGCGACCCCUGUCCGAUUCUGGUGAAUCUGCGAAUUCUGCUGU  0.218
39. GGGGGCCACAGCAGAAGCGUUCACGUCGCGACCCCUAUCAGAUUCUGGUGAAUCUGCGAAUUCUGCUGU  0.193
